Sequences and labels used below:
T1: EsCas13d, nuclease-dead (Eubacterium siraeum, UniProt B0MS50, R295A;H300A;R849A;H854A)
T1 sequence: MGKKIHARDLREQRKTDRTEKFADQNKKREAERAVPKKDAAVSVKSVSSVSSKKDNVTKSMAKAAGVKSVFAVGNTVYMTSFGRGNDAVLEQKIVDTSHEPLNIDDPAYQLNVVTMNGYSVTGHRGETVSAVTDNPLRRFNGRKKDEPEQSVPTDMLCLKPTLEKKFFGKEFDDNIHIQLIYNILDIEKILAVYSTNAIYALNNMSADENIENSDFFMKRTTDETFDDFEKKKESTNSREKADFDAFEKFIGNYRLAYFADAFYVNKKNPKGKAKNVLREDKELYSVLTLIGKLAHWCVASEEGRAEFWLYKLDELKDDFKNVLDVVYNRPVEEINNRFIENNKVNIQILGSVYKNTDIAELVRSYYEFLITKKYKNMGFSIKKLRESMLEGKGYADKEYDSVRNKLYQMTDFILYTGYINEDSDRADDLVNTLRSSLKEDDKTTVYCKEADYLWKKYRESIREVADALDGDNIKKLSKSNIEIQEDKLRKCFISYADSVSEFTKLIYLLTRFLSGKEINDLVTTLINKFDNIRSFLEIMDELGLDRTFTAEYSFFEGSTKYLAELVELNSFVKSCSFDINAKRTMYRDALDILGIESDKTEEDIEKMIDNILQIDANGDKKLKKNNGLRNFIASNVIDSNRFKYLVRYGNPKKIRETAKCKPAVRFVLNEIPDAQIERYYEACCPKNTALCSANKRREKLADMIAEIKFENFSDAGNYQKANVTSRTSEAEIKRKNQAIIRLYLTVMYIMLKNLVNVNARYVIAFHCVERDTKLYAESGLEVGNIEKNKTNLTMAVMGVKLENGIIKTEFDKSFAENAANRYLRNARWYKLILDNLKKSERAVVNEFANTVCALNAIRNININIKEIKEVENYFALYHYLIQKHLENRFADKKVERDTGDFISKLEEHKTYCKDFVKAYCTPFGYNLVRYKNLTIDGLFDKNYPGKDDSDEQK

B1: target 1 MT 5'PFS GUA 3'PFS GAC (mixed)
RNA 1: CACCCGUGCAAAAAUGCAGGGGUCUAAAACUGAGCGGAUAACCUCUCUAUGG
RNA 2: GGGAAUGGAUCCACAUCUACGAAUUCGUACCAUAGAGAGGUUAUCCGCUCAGACAGAUCGGAAGAGCACACGU
B2: target 1 MT 5'PFS CUA 3'PFS UAA (mixed)
RNA 1: B1 RNA 1
RNA 2: B1 RNA 2 with G27C, G52U, C54A
B3: target 1 MT 5'PFS CAG 3'PFS ACG (mixed)
RNA 1: B1 RNA 1
RNA 2: B1 RNA 2 with G27C, U28A, A29G, G52A, A53C, C54G
B4: target 1 MT 5'PFS UCA 3'PFS CCG (mixed)
RNA 1: B1 RNA 1
RNA 2: B1 RNA 2 with G27U, U28C, G52C, A53C, C54G
B5: target 1 MT 5'PFS CAG 3'PFS ACA (mixed)
RNA 1: B1 RNA 1
RNA 2: B1 RNA 2 with G27C, U28A, A29G, G52A, A53C, C54A
B6: target 1 MT 5'PFS UUU 3'PFS AGC (mixed)
RNA 1: B1 RNA 1
RNA 2: B1 RNA 2 with G27U, A29U, G52A, A53G
B7: target 1 MT 5'PFS GUC 3'PFS UUG (mixed)
RNA 1: B1 RNA 1
RNA 2: B1 RNA 2 with A29C, G52U, A53U, C54G
B8: target 1 MT 5'PFS GUC 3'PFS AUG (mixed)
RNA 1: B1 RNA 1
RNA 2: B1 RNA 2 with A29C, G52A, A53U, C54G
B9: target 1 MT 5'PFS GCA 3'PFS CAA (mixed)
RNA 1: B1 RNA 1
RNA 2: B1 RNA 2 with U28C, G52C, C54A
B10: target 1 MT 5'PFS GUC 3'PFS AUC (mixed)
RNA 1: B1 RNA 1
RNA 2: B1 RNA 2 with A29C, G52A, A53U
B11: target 1 MT 5'PFS GUA 3'PFS UCU (mixed)
RNA 1: B1 RNA 1
RNA 2: B1 RNA 2 with G52U, A53C, C54U
B12: target 1 MT 5'PFS AGG 3'PFS ACG (mixed)
RNA 1: B1 RNA 1
RNA 2: B1 RNA 2 with G27A, U28G, A29G, G52A, A53C, C54G
B13: target 1 MT 5'PFS GUA 3'PFS UCC (mixed)
RNA 1: B1 RNA 1
RNA 2: B1 RNA 2 with G52U, A53C
B14: target 1 MT 5'PFS GCA 3'PFS CAU (mixed)
RNA 1: B1 RNA 1
RNA 2: B1 RNA 2 with U28C, G52C, C54U
B15: target 1 MT 5'PFS CUA 3'PFS UAG (mixed)
RNA 1: B1 RNA 1
RNA 2: B1 RNA 2 with G27C, G52U, C54G
B16: target 1 MT 5'PFS AGG 3'PFS ACC (mixed)
RNA 1: B1 RNA 1
RNA 2: B1 RNA 2 with G27A, U28G, A29G, G52A, A53C
B17: target 1 MT 5'PFS GUC 3'PFS UUC (mixed)
RNA 1: B1 RNA 1
RNA 2: B1 RNA 2 with A29C, G52U, A53U
B18: target 1 MT 5'PFS GUC 3'PFS AUA (mixed)
RNA 1: B1 RNA 1
RNA 2: B1 RNA 2 with A29C, G52A, A53U, C54A
B19: target 1 U8A,A9U (mixed)
RNA 1: B1 RNA 1
RNA 2: B1 RNA 2 with A43U, U44A, G52C, A53C, C54G
B20: target 1 MT 5'PFS CUA 3'PFS AGG (mixed)
RNA 1: B1 RNA 1
RNA 2: B1 RNA 2 with G27C, G52A, A53G, C54G
B21: target 1 MT 5'PFS CAA 3'PFS CUG (mixed)
RNA 1: B1 RNA 1
RNA 2: B1 RNA 2 with G27C, U28A, G52C, A53U, C54G
B22: target 1 MT 5'PFS GUA 3'PFS UCA (mixed)
RNA 1: B1 RNA 1
RNA 2: B1 RNA 2 with G52U, A53C, C54A
B23: target 1 MT 5'PFS GUG 3'PFS AGA (mixed)
RNA 1: B1 RNA 1
RNA 2: B1 RNA 2 with A29G, G52A, A53G, C54A
B24: target 1 MT 5'PFS GUC 3'PFS AUU (mixed)
RNA 1: B1 RNA 1
RNA 2: B1 RNA 2 with A29C, G52A, A53U, C54U
B25: target 1 U3C,C4G (mixed)
RNA 1: B1 RNA 1
RNA 2: B1 RNA 2 with C48G, U49C, G52C, A53C, C54G
B26: target 1 MT 5'PFS ACA 3'PFS AUA (mixed)
RNA 1: B1 RNA 1
RNA 2: B1 RNA 2 with G27A, U28C, G52A, A53U, C54A
B27: target 1 MT 5'PFS UAG 3'PFS AUA (mixed)
RNA 1: B1 RNA 1
RNA 2: B1 RNA 2 with G27U, U28A, A29G, G52A, A53U, C54A
B28: target 1 C7A,G12A (mixed)
RNA 1: B1 RNA 1
RNA 2: B1 RNA 2 with G40A, C45A, G52C, A53C, C54G
B29: target 1 MT 5'PFS UAG 3'PFS AUG (mixed)
RNA 1: B1 RNA 1
RNA 2: B1 RNA 2 with G27U, U28A, A29G, G52A, A53U, C54G
B30: target 1 MT 5'PFS UAG 3'PFS AUC (mixed)
RNA 1: B1 RNA 1
RNA 2: B1 RNA 2 with G27U, U28A, A29G, G52A, A53U
B31: target 1 MT 5'PFS CUA 3'PFS AGU (mixed)
RNA 1: B1 RNA 1
RNA 2: B1 RNA 2 with G27C, G52A, A53G, C54U
B32: target 1 MT 5'PFS CUA 3'PFS UAC (mixed)
RNA 1: B1 RNA 1
RNA 2: B1 RNA 2 with G27C, G52U
B33: target 1 MT 5'PFS UUA 3'PFS AUU (mixed)
RNA 1: B1 RNA 1
RNA 2: B1 RNA 2 with G27U, G52A, A53U, C54U
B34: target 1 MT 5'PFS ACA 3'PFS AUG (mixed)
RNA 1: B1 RNA 1
RNA 2: B1 RNA 2 with G27A, U28C, G52A, A53U, C54G
B35: target 1 MT 5'PFS GUA 3'PFS UCG (mixed)
RNA 1: B1 RNA 1
RNA 2: B1 RNA 2 with G52U, A53C, C54G
B36: target 1 MT 5'PFS CAG 3'PFS ACC (mixed)
RNA 1: B1 RNA 1
RNA 2: B1 RNA 2 with G27C, U28A, A29G, G52A, A53C
B37: target 1 MT 5'PFS ACA 3'PFS AUC (mixed)
RNA 1: B1 RNA 1
RNA 2: B1 RNA 2 with G27A, U28C, G52A, A53U
B38: target 1 MT 5'PFS GCA 3'PFS CAG (mixed)
RNA 1: B1 RNA 1
RNA 2: B1 RNA 2 with U28C, G52C, C54G

Residue numbers refer to the chain shown, from its start. Numbers in names are those of the source.

The target of this series is T1, EsCas13d, nuclease-dead. Description: crRNA (strand 1, pre-loaded); Mg2+; 40 mM Tris-HCl pH 7.5, 150 mM NaCl, 6 mM MgCl2, 1 mM DTT, 0.1% Tween-20, 0.2 mg/ml BSA; 25 C; 10 min per concentration, then washed. The following applies: tags: His6-TwinStrep-SUMO cleaved; N-terminal SNAP kept (SNAP-Surface 488); label: 3' end held by stalled T7 RNA polymerase.
For B1, the dissociation constant Kd (as a rule, the constant that tells how readily two partners part at equilibrium) turned out to be 14.3 ± 3.05 nM. For B2 the value was 6 ± 1.3 nM; for B3, 19.5 ± 5.15 nM; for B4, roughly 25 nM. As to B5, the dissociation constant Kd was determined as 31 ± 15.5 nM. B6 displayed a dissociation constant Kd of 68 ± 27.5 nM.

With B7, binding was put at a Kd of 11.9 ± 1.75 nM. For the molecule B8, the dissociation constant (Kd) worked out at 24.5 ± 4 nM. Turning to B9, the equilibrium dissociation constant (Kd) is roughly 32.5 nM. On to B10, for which binding was characterised by a dissociation constant (Kd) of 28.5 ± 11 nM. In the case of B11, the Kd came to 8.3 ± 0.95 nM. With B12, the dissociation constant (Kd) was 41 ± 10 nM. Turning to B13, binding was put at a Kd of 7.33 ± 0.61 nM. For B14, the Kd amounted to 35 ± 11 nM. For B15 the value was 4.9 ± 0.9 nM; for B16, 46.5 ± 22 nM. Regarding B17, the dissociation constant (Kd) is 19.1 ± 4.5 nM.

Molecule B18 registered an equilibrium dissociation constant (Kd) of 26 ± 7 nM. B19: the dissociation constant (Kd) turned out to be 12.9 ± 0.8 nM. B20 gave an equilibrium dissociation constant (Kd) of 41 ± 19 nM. B21 displayed a Kd of 14.5 ± 5 nM.

As to B22, the Kd was found to be 12.3 ± 0.95 nM. As to B23, the Kd amounted to 15.9 ± 1 nM. In turn, B24 gave a Kd of 16.1 ± 2.15 nM. B25 showed an equilibrium dissociation constant (Kd) of 11.4 ± 0.6 nM. As to B26, the dissociation constant Kd is 12.2 ± 3.9 nM.

As for B27, binding was put at a Kd of 31.3 ± 4.95 nM. B28 displayed a Kd of 9.6 ± 0.8 nM. B29 came in with a dissociation constant (Kd) of 46.5 ± 9 nM. In the case of B30, the dissociation constant Kd came out at 32 ± 9 nM. Take B31: the Kd is 12.2 ± 3.65 nM. Consider B32, for which the Kd was roughly 3.9 nM.

B33 came in with a Kd of 13.2 ± 2.1 nM. B34 showed a Kd of 39.5 ± 14.5 nM. With B35, binding was characterised by a dissociation constant (Kd) of 8.56 ± 0.55 nM. For B36 the value was 24 ± 11.5 nM.

Take B37: the Kd was 56 ± 25.5 nM. As for B38, the Kd is roughly 36.5 nM.

The values above are taken from article PMC10786891, “Massively parallel profiling of RNA-targeting CRISPR-Cas13d”.
